Experimental data from the DeepSol protein solubility set.

Assay: soluble on expression in E. coli; label from the status in PepcDB or PDB records

Sequence	soluble on expression in E. coli
MSSDNLVENIIAEVLGKVGDLKTPSAASQPGISQQEPAIPRKLCGLTEFVGTATGDSIGLVIANVDSALLDAMHLEKKYRSIGILGARTGAGPQIMAADEAVKATNTEVVAIELARDTKGGAGHGSLVLFGGQDVSDVKRAVEVALGELERTFGDIYANAAGHVELQYTARASYALEKAFGAPLGRACGVIVGAPAAIGVLMADTAIKSANVDVVAYNSPAKGTSFTNEVILIVSGDSGAVRQAVRSARDVGLTLLETMGGKAPSATTPYI	not soluble
MILAIFSLRLLLIPTIDEPESIVTQLENAIDPVTQVPDFSAITDVAEKKRAFFDFLRPIVQQQNAIIASEREFITDMLAIVENGNALSDSQSAQLNQIFDKYLYAARNVDAKSLNSLLKRVDIIPESMVLIQAANESGWGSSRFAREGFNFFGEWCFSNGCGIVPSSRGSGKTHEVKIFPSVDASVSSYMRNLNSNTAYNLFRSIRADLRAQEAELNADQLIYGLVNYSERQEAYIDELLDMLRHNAKYLVKADV	soluble
AHHHHHHGSILKMLESRGITLERMVETALELYIGEKRDAIKEKVRELMLHYLEDINVQALLMAALMLEEKFNVEGDPVNLVADELIGIDIAEYIGGKMALFNFFYYDTKKPGILRELPPFLDDAIGGFIAGCMTLLFHIPQKNSNGGNL	soluble
MSLNTQLAIIRSKGKEHICYREEECFVDVSYPMVTFTKGEDDFEIVKCDHPSMEETFLYQESRLSIVIEMYHNGWPALSLKDPVTHEIYTVLTVNLEDKAAFSLPDRAFVDINNNPDAMEFLLSNKLAEDTGYRRQSGWVSYPMVTLNLPTFYRLDPHAFSAILNIREGHHHHHH	soluble
MGLKPCDYPDIKHGGLYHENMRRPYFPVAVGKYYSYYCDEHFETPSGSYWDHIHCTQDGWSPAVPCLRKCYFPYLENGYNQNHGRKFVQGKSIDVACHPGYALPKAQTTVTCMENGWSPTPRCIRVKTCSKSSIDIENGFISESQYTYALKEKAKYQCKLGYVTADGETSGSITCGKDGWSAQPTCI	soluble
MAHHHHHHMLRYTPMWRCSAAAMQTLSAWLTDLAEESMAVPSATAADLQTRQNDGQGPTRKTPAQLWRELEDAATHANALRETDTLFSILQCLLLKQQYPTDVHAWARLAKQLLPYSGIEQKSVLHYPGRSDASYRRDGHPGGSSLANLSSSSDPVLTDADGGFGDDGASRRGGGGARRGGEYAVPYSLYPSRETLLLSGGVVPLSARVPCGDGRAISLFVRGFTRFVEGQLGVQPHTQLTSELLQVVKDVSGAVTEALAVNADSLQLELLLPALLDYMELLHVLDLRTATVAACGPLATEEERRDAAGATVRDDEPNGHGRSSPPRPSKPTRFLQNMVHDLAQNAMAGAARGARVVLYYLNECFAAVVEAYQADAAATFTDKMYWAQQRYLLTLTRACMWAISQHYTSATTAALSAASGSVASSPSPHVQGLRPTVATADLVATAPMNAHIQALYDHIDVLFQRNTHADNPLHLTDEEVAQLKEIHTAALLRALRIEEAAPDAYLRRALEVVDRVPASMAIEGELIAGKVRLLELDSDTVDEEGRAAIYDDLLTSLRSLVEMRPRFLRHNGAHHAAGGGAAAAASASTPADGGGGGGEEDEGDGEQLRLDAATQAILQRAHFDVITAFCAAHKEEWSNEAYNILVAHKYHGVKITNDLIRPVLEVFSRRGDCRVFSLVDLCVLYSNEPIDMHTIALLFRTCAAAGDHHRARTFLQLVNEIIHGFLVKCPASVKESLQELKLLDPPPRHLFVSTEDDLVQSALGEQQRTVRRLPTGS	not soluble
MSTCKQFLSTKKKSKDSYEFIENLGEGSFAEVVLVAKVGTPNKMFAMKEISIVGKDECFMESIKRECSIQKRLSKSRHLNMIHLFEIRTNPENYQLILSYADGGDLFEKINQHGGLGSDEAHRYFKQLIDGLRFIHEEGVTHRDIKPENLLLTKSGILKIADFGFATMHRFNGAEQMLNAYCGSPPYIAPEVLTGIDYRGPAVDIWSAGVVLIAMIAGAVPWEQADHFDIFQSRYCSFRRNGRKGAWSRMSQQVISLLRKILLQAELRATISMIEEDPWFIYGEEVDAENKENGSQAQYRQESQTSSKPILNFENLLKDLNVSI	not soluble
GGELVLLPAPQIPLIMKIMKKHTPTWVPGVPTLYQKIVEAAERDGISISGVRNSFSGASSLPVETVARWEALTGGLLVEGYGLTETSPIIVGNPMTTDRRPGYVGVPFPDTEIRIANPDNLDETMPDGQEGEVLVRGPQVFSGYLNNPEATAKSFHGQWYRTGDVGIMEEDGFIRLVARIKEVIITGGFNVYPAEVEEVLRNHPDITDATVVGLPRGD	not soluble
GAMGKVTHSIHIEKSDTAADTYGFSLSSVEEDGIRRLYVNSVKETGLASKKGLKAGDEILEINNRAADALNSSMLKDFLSQPSLGLLVRTYPEL	soluble
LYIHGFASSGESHKAKALKAGLAPYEVMTPTLSYVPSLAFQTLRQLVDESLAQKEELTLIGASLGGYYATQLSWLYNLKAILINPAITPYETL	not soluble
MTIIFPSPIFGPVHSRRLGVSLGINLLPEDGKVCSFDCIYCECGFNADHRPKKHLPTREEVRIALEEKLKDMQKNGPAPDVLTFAGNGEPTAHPHFPEIIEDTLALRDHYFPNAKVSVLSNSTFIDRPAVFDALNKIDNNILKLDTVNEEYIHLLDRPNGKYSVRKIIEKMKEFKGNCIVQTMFLKGSYLGKDMNNTSDEFVLPWLEAVKEIAPSQVMIYTIDRETPDHDLQKATHEELDRIVELIKRTGIPATASY	not soluble
TMEEELEPVVRHLVEQRWPFRLHATYNESITRMLDVFEKVNRDIPFNGLPWFFDHAETITPQNIERVRALGGGIAIQDRMAFQGEYFVDRYGAKAAEQTPPIKRMLEMGVPVGAGTDATRVSSYNPWTSLYWLVSGKTVGGMELYPEGLSRDTALQLFTQGSAWFSSEQGKKGQIKVGQLADLAALSLDFFSVDEEAIKGIESVLTIVDGKVVYGAGEFDKFGPPQVPVLPEWSPVTKVPGHWRVGTPSLAAAVHQCSGPCGVHAHSHEKARHSSVPVNDFQGFWGALGCSCFA	not soluble
MGSDKIHHHHHHMNPNTVPPAARDVAWIKHALQTAIELEYSTLPLYLSAMFSLEVQNYTAYNAIRSIAMEEMVHMAIAANLLAALGGSPQFKPIQIAYPTTGLPGGAEPDLHVGLARYSKPQLKNFLRIETPGFLLRQLGRDEGYPTIAAFYESIRSAIARNANAVRAAVQAGGPANQVGDDIGFTTVTYKPGVDPVESFDAGIGEILQQGEGSGRGDVFAGNPFEDEESHYARFAELYYGARYQAPSPPVDFNPKNEPLFFGGPAIAAPVVVNTLAVPRDGYARILALDPERDTVESDLNAFDSGFSKILSTLDAVWNGPSSTSWKTLGAAVHGMVDLRVLSCFNIMRHAVPAAAVSQLAELYPDEIGFLRTYTDLSKPVFYGPRFVNVNGKQAS	not soluble
MADNINESEIIERLNSAPSVRGFFIATVDVFNESIDGLIQRIFRKDNFAVQSVVGPLLQDSGPLGDLSVRLKLLFGLGVLPDDIYHDIEDIIKLKNHLNSDASDYEFTDPNILEPIKKLHLVKKMGMVQLEVNEPDDDIDLEFYQLQLQRQQQIIKSGLSLAIVEICNELGK	soluble
MSLKILLMLLCVSVLGCSKNSVESEKPVDVLLIGGGIMSATLGTYLNELEPGWTIEMVERLDKVAEESSNGWNNAGTGHSAFCELNYTSEAADGSMDISKAVAINENFEISKQFWAYQVDRKVLNDPKSFINNVPHMSFVWGDDNVAFLKKRHAALQHSSLFRGMEYSEDPEQIKQWVPLVMEGREPGQKIAATRMSIGTDVNFGEITRQLVGSLSAKDTFKLRLQHEVRDLKRNDDNTWTVTMADLANGDKETSVKARFVFIGAGGGALKLLQMSGIPEAEGYAGFPVGGSFLATTNPDVVKRHLAKVYGKASVGSPPMSVPHLDTRMIDGKPVLLFGPFATFSTKFLKNGSLWDLPGSVTSGNIGPMFNAGIDNFDLSQYLIGQLMLSQDDRMASLREYFPEARDEDWKLVQAGQRVQIIKKDAEKGGVLQFGTEVVTAADGSVAALLGASPGASTAAPIMLSVLEKAFKDKVATPEWQARLKEIVPSYGRKLNNDIELTNSTRAWSSERLQLIHVPVQEGGSHHHHHH	soluble
MSIESSATPTTPNAEALQLNSTEVRILGCLIEKQATNPETYPLTLNALVIACNQKTSRDPVMNLTQGQVGQSLRALEGRGLTRLVMGSRADRWEHKVDKGLELVPAQVILTGLLLLRGPQTVSELLTRSNRMHDFEDSEQVVHQLERLIARGLATLVPRQSGQREDRYMHLIGDPEDLQDLLAARQQAPERGNAASPAATQRLDELEARIAALEERLARLE	not soluble
MSSTQEASVTDLPVKRPREAEEDNNGGAMETENGGGEIKEPSCMSSIIPGWFSEISPMWPGEAHSLKVEKILFQGKSDYQDVIVFQSATYGKVLVLDGVIQLTERDECAYQEMITHLPLCSISNPKKVLVIGGGDGGVLREVARHSSVEQIDICEIDKMVVDVAKQYFPNVAVGYEDPRVNLIIGDGVAFLKNAAEGTYDAVIVDSSDPIGPAKELFEKPFFESVNRALRPGGVVCTQAESLWLHMDIIEDIVSNCRDIFKGSVNYAWTSVPTYPSGVIGFMLCSSEGPQVDFKKPVSLIDTDESSIKSHCPLKYYNAEIHSAAFCLPSFAKKVIDSKAN	soluble
MAHHHHHHMSSKGAAMTPNGNGATHESRPGKKGRPPRRRADREAAGAHFDCGSSQTTEKGGDEYQYKHPKPRVLTSSLFMWEHVAVFSMPAQVAELERVSRDVARLLEDSNTGTHPMQRYWNAQWSRMVWREEELPDEKKYLAPTMLTRSDGKRKWKNVFVQEYPLYLKRVYQGKGVCNNAVNAAKVLFNRQVLNAAKTAAELERMELTVEEARVKEQKKRGVDVEFEETPDTAPSPPWLGCHHGSYPEKGERERHEKGRPRAVKKASHETYTRSDYKEDYRTGDRKGKHKKGGTGRWSKFDDFGDYDY	not soluble
MNQVEMTEFPVGKPQEALYGVASTPDGALWFTLAKGNAIGRLSPDGAVSRFPLPHADGQPTTITCGPDGRPWFTLSSANAIGRLAPDGALRMFELPRPASRPFGIAGGHDGCLWFAEMAGDRIGRITIDGDIEEYDLPVKGGYPSCMAAGRDGLMWFTLNQAGAVGSISATAAPRIFPLGAADAAPVGIASDAQGALWIAQAGNGAIARFDAGGRITEFPLHSRAARPHAIAADAAGNLWFTEWGANRIGRISEAGDLAGYELAAPGSEPHGIAIDPHGCVWAALETGRLVRLQASPRDLEHHHHHH	not soluble
MTTDQIAAFCLQLPGAREDLKWGSNRVFSVAGNKMFAILDFVDKDGGLAFKVGSELFLGYVDRPGIRPAPYLARAHWIVMARPYPMKAAELREALVRSHQLVVARLPKRQRLGLVLDA	not soluble
MRYDVVVVGSGVAGPIVARNVAKAGFSVLLVDKKPAIGAPKQCAEGLTINAFKQFDIPYDKRFINREIYGAKIYSPSGYTAELRYKEVSGVILERKVFDKMLAYYAAKAGAEVLARTEVVDVIRREGKIVGVKAKHEGEPMEIEAKVIVAADGVESTIARKAGIDTYAPPHEFDSGYEYEMIIEGFDPDLIHLFFGNEVAPRGYVWVFPKDEDRANVGIGINSDNEKTAKYYLDKWLKENNIPRNKILEVNVGLIPVGGFVKELVKENVLVVGDAARQVNPIHGGGMAEAMKASTIASKWIIKALEEENLELLKNYKEEWWKTEGPRMEKLLRLRRAMEKLTDEDLDVFVQLVSGTDLEKIAGGNYIEVVKALMKHPKVLMSRRRLEILKALLLEHHHHHH	soluble
